Reference: publication PMC3135476 (Molecular Biology of the Cell, 2011)
Values belong to the molecule of their own block, whether it stands above or below them.

How the values were obtained:
[1] = target: microtubules (U2OS cells) (human (endogenous in U2OS)) (UniProt P07437); test: co-sedimentation
[2] = target: KRIT1 FERM domain, residues 417-736 (wild type) (human, UniProt O00522 417-736); test: ITC
[3] = target: KRIT1(R452E) FERM domain, residues 417-736 (human, UniProt O00522 417-736, R452E); test: ITC
KRIT1(R452E) FERM domain, residues 417-736, sequence (O00522 417-736 R452E): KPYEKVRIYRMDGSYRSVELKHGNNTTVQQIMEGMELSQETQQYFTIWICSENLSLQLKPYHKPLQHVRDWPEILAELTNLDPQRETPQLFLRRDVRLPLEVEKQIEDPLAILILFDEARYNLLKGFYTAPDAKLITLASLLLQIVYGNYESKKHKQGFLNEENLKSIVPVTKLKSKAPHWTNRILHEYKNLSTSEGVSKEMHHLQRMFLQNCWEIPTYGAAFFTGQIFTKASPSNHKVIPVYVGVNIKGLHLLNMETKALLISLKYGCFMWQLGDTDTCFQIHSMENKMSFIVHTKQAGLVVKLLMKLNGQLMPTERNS

microtubules (U2OS cells) (human (endogenous in U2OS)), sequence (P07437 whole entry, looked up, the tested form may be a part): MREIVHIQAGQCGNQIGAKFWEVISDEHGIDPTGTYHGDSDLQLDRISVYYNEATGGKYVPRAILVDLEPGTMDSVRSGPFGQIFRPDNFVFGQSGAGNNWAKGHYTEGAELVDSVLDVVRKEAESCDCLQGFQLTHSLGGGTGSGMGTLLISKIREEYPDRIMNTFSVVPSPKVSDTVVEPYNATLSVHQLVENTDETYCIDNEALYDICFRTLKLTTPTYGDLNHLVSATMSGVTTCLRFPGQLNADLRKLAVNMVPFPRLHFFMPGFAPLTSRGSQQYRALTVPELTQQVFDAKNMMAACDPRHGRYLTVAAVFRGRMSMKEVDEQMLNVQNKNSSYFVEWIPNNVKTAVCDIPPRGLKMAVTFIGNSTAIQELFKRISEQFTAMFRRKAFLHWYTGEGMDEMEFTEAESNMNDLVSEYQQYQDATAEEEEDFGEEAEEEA
KRIT1 FERM domain, residues 417-736 (wild type), sequence (O00522 417-736): as the sequence (O00522 417-736 R452E) above, with E36R counted along it

fold increase in association with microtubules over wild-type KRIT1 [1]: 8 fold
Molecule: GFP-fused KRIT1(R452E) (U2OS) (from UniProt O00522 1-736) (natural protein)

Kd [2]: 1.8 ± 0.25 µM
Kd [3]: 67 ± 18.7 µM
B1: Human Rap1 isoform Rap1B (residues 1-167) bound to GMP-PNP (domain or fragment, UniProt P61224 1-167, looked up)
chain: MREYKLVVLGSGGVGKSALTVQFVQGIFVEKYDPTIEDSYRKQVEVDAQQCMLEILDTAGTEQFTAMRDLYMKNGQGFALVYSITAQSTFNDLQDLREQILRVKDTDDVPMILVGNKCDLEDERVVGKEQGQNLARQWNNCAFLESSAKSKINVNEIFYDLVRQINR
